Source: PMC11211324 (2024)

Target: KRAS-LgBiT (UniProt P01116 1-189)
Experiment: NanoBiT in 293T cells

Chain of KRAS-LgBiT (P01116 whole entry): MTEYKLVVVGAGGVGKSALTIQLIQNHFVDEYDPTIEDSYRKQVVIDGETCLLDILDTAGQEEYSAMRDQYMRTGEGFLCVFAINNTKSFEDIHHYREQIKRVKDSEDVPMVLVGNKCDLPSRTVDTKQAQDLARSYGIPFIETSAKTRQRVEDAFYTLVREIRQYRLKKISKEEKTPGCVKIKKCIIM

Kd: 0.0413 µM
B1: TKD (nanobody)-SmBiT (VHH)
VHH: DVQLQESGGGLVQAGGSLRLSCVASGRTFSTYPTGWFRQAPGKEREFVARINLSGGITNYADSVKGRFTISRDNAKNTVYLQMNSLKPEDTAVYYCGGGSTTWAGGIPTNFDYWGQGTQVTVSS
